Values of other authors in publication PMC2712931.

Target: Pex5 (UniProt P50542)

Kd: 2.75 µM
Substance: Pex14 (from UniProt O75381)
